The text below walks through data of patent publication US20030096753A1 (published 2003).

The target in assay [1] is T1, Purified recombinant human NGF (human, UniProt P01138 122-241, limits assumed, radioiodinated with 125I (lactoperoxidase method) where used as tracer).
T1 construct: also called unlabeled human NGF
The assay can be described thus: competitive binding assay, 125I-NGF on A875 cells (p75NGFR), numerical fit. As to the method: (§1) The binding affinity of ¹²⁵I-NGF to the Ig-like domains of TrkA was determined by a competitive binding assay using the melanoma cell line A875 American Tissue Culture Collection (ATCC) which expresses the NGF receptor p75^NGFR.
(§2) Purified recombinant human NGF was radioiodinated with I¹²⁵ using a lactoperoxidase method and equilibrium binding with [¹²⁵I]-NGF was carried out (Treanor et al., 1991; Neuroscience Letters 121 p73-76). Briefly A875 cells (10⁶ per ml) were incubated with [¹²⁵I]-NGF (0.14 nM) and serial dilutions of unlabeled human NGF (concentration range: 10⁻⁶ M to 1×10⁻¹¹ M), TrkAIg1,2 (concentration range: 4×10⁻⁶ M to 1×10⁻¹¹ M) or TrkAIg2 (concentration range 5×10⁻⁶ M to 1×10 ⁻¹¹ M). Tubes were shaken vigorously at room temperature for 1 hr. 100 μl aliquots were then layered over 200 μl sucrose (0.15 M in binding buffer) in Beckman tubes. After centrifugation (15 seconds at 20,000 g) bound and free [¹²⁵I]-NGF were separated by freezing the tubes in liquid nitrogen and determining the bound [¹²⁵I]-NGF of the cell pellet. Binding reactions were carried out in triplicate. Counts were corrected for background and specific binding was between 85-87% of total binding. The competitive binding assay (FIG. 9) allowed estimation of the binding affinity of [¹²⁵I]-NGF to the recombinant TrkAIg2 protein. […]

Assay [2] has as its target T1, Purified recombinant human NGF. The assay can be described thus: displacement binding assays of the two Poros 20HQ peaks.
Assay [3] has the same target. The assay can be described thus: competitive binding assay, 125I-NGF on A875 cells; reference TrkAIg1,2. The procedure: as §1, §2
Assay [4] has as its target 7S NGF (complex of 2.5S (β-NGF) and γ NGF). The assay can be described thus: cell-based or functional assay.
In assay [5] the target is NGF (source and species not stated; used in the BiaCore study and on PC12 cells). The assay can be described thus: SPR (BiaCore-X), TrkAIg2 amine-coupled to the chip, NGF 40 nM to 500 nM as analyte, BiaEval 3.0 fit. The procedure:
TrkAIg2 was covalently attached to the surface of the sensor chip by coupling with amine groups on TrkAIg2 to carboxyl groups on the surface using BiaCore Amine Coupling kit and varying concentrations of NGF passed over at a constant flow rate of 20 μl/min for two minutes. Data were collected for a range of NGF concentrations of 1 μM to 1 nM. […] However, data collected for the range 40 nM to 500 nM could be successfully evaluated.
For orientation: Surface plasmon resonance follows binding to a sensor surface in real time, without labels.

T1 sequence (P01138 122-241 limits assumed): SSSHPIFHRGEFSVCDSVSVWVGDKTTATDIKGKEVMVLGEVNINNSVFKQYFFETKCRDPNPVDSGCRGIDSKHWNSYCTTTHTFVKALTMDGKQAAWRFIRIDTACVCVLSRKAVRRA
Sequence of NGF (source and species not stated; used in the BiaCore study and on PC12 cells) (chain, as listed by the source): as the sequence (P01138 122-241 limits assumed) above
Sequence of 7S NGF (complex of 2.5S (β-NGF) and γ NGF) (P01139 122-241, one chain of several): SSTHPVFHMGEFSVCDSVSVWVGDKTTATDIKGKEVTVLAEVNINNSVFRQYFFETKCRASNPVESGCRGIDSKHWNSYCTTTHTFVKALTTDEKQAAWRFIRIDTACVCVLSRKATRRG

B1: TrkAIg1,2 (the two immunoglobulin-like domains and proline-rich region of TrkA, amino acids 160-375) (receptor)
chain: MGSSHHHHHHSSGLVPRGSHMLEGVPTLKVQVPNASVDVGDDVLLRCQVEGRGLEQAGWILTELEQSATVMKSGGLPSLGLTLANVTSDLNRKNLTCWAENDVGRAEVSVQVNVSFPASVQLHTAVEMHHWCIPFSVDGQPAPSLRWLFNGSVLNETSFIFTEFLEPAANETVRHGCLRLNQPTHVNNGNYTLLAANPFGQASASIMAAFMDNPFEFNPEDPIPDTNSTSGDPVEKKDE
notes: The range counts on the mature extracellular domain; also called TrkAIg1,2 domain
In the case of B1, the equilibrium dissociation constant (Kd) (usually the free concentration of one partner at which half of the binding sites on the other are occupied at equilibrium, for simple one-to-one binding) in assay [1] is 3.3 nM.

B2: TrkAIg1 (his TrkAIg1; TrkA Ig-like sub-domain 1, amino acids 160-252) (receptor)
chain: MGSSHHHHHHSSGLVPRGSHMLEGVPTLKVQVPNASVDVGDDVLLRCQVEGRGLEQAGWILTELEQSATVMKSGGLPSLGLTLANVTSDLNRKNLTCWAENDVGRAEVSVQVNVSF
notes: Two peaks eluted from Poros 20HQ; both were tested in the displacement assay; also called first immunoglobulin-like domain
In the case of B2, in assay [2], the binding result is recorded as “no binding”.

B3: TrkAIg2 (his TrkAIg2; TrkA Ig-like sub-domain 2 together with the proline rich region, amino acids 253-375; first, active peak from Poros 20HQ) (receptor)
chain: MGSSHHHHHHSSGLVPRGSHMPASVQLHTAVEMHHWCIPFSVDGQPAPSLRWLFNGSVLNETSFIFTEFLEPAANETVRHGCLRLNQPTHVNNGNYTLLAANPFGQASASIMAAFMDNPFEFNPEDPIPDTNSTSGDPVEKKDE
notes: The range 253-375 counts on the mature extracellular domain, not on the precursor; Removal of the His tag is not reported; also called TrkIg2; TrkAIg2 domain
Take B3: the “fold IC50 against TrkAIg1,2” value in assay [3] turned out to be 3 fold. The “NGF-induced plasma extravasation in rat skin, co-injection” value in assay [4] worked out at 10 fold excess. Also, the dissociation constant Kd in assay [5] came to 11.8 nM.
